From article PMC3817407

Columns and labels:
[1] = molecular target: T1, ECF02_915
T1 chain: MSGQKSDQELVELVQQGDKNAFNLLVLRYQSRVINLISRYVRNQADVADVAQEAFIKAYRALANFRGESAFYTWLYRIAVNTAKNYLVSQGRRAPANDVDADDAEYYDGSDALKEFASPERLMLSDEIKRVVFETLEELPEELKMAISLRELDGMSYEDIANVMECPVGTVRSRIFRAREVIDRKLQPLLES

[2] = molecular target: T2, ECF33_375
T2 chain: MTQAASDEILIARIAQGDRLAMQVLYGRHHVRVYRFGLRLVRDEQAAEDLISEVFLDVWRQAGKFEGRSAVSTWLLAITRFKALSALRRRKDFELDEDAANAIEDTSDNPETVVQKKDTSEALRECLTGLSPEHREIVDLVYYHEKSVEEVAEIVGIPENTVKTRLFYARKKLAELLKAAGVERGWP

[3] = molecular target: T3, ECF14_3200
T3 chain: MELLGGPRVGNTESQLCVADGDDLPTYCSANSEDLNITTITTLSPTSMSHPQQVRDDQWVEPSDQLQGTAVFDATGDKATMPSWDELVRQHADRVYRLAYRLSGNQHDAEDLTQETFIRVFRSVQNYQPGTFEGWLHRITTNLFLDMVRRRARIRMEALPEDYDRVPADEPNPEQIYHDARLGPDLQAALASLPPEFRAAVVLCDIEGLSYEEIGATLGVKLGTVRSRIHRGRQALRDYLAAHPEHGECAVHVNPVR

[4] = molecular target: T4, ECF17_1458
T4 chain: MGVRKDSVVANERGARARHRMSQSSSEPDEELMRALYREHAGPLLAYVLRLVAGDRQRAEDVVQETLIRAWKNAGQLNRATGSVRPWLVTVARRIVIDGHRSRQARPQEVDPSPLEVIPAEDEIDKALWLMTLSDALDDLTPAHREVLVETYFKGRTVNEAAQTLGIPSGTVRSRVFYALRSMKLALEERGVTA

[5] = molecular target: T5, ECF02_2817
T5 chain: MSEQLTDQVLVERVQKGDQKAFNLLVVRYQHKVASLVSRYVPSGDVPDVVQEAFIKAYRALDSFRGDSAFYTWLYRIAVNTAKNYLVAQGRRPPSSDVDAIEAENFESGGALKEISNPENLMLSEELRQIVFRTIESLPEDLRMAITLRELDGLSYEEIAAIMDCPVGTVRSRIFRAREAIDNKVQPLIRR

[6] = molecular target: T6, ECF33_423
T6 chain: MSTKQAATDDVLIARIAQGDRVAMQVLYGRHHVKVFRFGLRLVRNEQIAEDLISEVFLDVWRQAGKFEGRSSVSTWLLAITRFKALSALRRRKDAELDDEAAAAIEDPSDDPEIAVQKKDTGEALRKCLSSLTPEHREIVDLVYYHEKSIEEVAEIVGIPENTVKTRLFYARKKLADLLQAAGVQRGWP

[7] = molecular target: T7, ECF03_1198
T7 chain: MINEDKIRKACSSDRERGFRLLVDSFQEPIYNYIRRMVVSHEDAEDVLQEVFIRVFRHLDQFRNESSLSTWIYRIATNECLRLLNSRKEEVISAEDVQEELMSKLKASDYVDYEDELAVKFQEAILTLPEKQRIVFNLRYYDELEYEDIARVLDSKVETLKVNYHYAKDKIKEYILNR

[8] = molecular target: T8, ECF11_987
T8 chain: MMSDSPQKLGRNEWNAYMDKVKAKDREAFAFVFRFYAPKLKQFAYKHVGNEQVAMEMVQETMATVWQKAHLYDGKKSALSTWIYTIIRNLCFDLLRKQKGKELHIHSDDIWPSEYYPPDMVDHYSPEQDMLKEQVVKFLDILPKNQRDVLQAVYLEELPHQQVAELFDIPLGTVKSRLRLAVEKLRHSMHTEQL

[9] = molecular target: T9, ECF14_1324
T9 chain: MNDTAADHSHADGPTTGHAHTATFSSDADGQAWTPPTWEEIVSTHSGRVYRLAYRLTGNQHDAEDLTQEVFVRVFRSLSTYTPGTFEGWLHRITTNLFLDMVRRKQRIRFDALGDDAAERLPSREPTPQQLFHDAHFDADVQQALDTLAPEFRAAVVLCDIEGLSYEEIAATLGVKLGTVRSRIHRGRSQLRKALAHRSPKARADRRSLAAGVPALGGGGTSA

[10] = molecular target: ECF26_4464
[11] = molecular target: T10, ECF22_4450
T10 chain: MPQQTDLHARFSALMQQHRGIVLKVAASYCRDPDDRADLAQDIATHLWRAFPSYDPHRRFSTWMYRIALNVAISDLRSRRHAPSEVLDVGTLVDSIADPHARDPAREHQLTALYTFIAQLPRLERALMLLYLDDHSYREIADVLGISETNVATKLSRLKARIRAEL

[12] = molecular target: T11, ECF28_1040
T11 chain: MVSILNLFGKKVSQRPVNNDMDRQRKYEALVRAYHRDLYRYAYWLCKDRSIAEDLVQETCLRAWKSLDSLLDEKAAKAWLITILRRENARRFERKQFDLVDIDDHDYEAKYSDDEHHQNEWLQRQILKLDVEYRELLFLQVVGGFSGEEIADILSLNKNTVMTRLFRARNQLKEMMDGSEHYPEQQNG

[13] = molecular target: T12, ECF31_34
T12 chain: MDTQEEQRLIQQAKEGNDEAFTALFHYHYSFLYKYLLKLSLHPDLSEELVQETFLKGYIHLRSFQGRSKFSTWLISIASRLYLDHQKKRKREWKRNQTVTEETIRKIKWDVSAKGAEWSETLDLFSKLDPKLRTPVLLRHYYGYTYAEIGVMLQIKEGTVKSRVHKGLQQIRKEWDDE

[14] = molecular target: T13, ECF20_992
T13 chain: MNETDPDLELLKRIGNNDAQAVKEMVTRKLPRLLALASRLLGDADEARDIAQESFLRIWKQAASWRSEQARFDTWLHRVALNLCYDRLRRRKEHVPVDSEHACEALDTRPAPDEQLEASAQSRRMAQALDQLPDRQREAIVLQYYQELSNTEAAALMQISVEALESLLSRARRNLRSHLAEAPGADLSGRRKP

[15] = molecular target: T14, ECF03_1244
T14 chain: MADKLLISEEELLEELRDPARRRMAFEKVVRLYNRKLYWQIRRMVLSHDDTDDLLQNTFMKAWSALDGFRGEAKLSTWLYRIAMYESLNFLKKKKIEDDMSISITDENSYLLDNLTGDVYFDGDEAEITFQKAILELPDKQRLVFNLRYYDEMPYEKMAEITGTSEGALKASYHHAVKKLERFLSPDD

| Binder | fold repression [1] | fold repression [2] | fold repression [3] | fold repression [4] | fold repression [5] | fold repression [6] | fold repression [7] | fold repression [8] | fold repression [9] | fold repression [10] | fold repression [11] | fold repression [12] | fold repression [13] | fold repression [14] | fold repression [15] |
| --- | --- | --- | --- | --- | --- | --- | --- | --- | --- | --- | --- | --- | --- | --- | --- |
| AS35_3582 (protein) MNPQKHSASVAEEQMLAHFRAHAPQQPAPALDQAILAAARRQAAHVEPARSWWRRWLEASRRPRWQAAFASLLGVALVLGLVSHNVLDDAERQARPEVAFSDVPLRDGVAGAAAAKRAMRAPAAPAPLSGEMSEPPALLASYASSGEAPQLMAEAAPPAPAALADRPPAQAAQQAKVQAALAGDFVAQARGKAVAVKPEVLDEALGAVLALREQGKTEQAATQLAELQKRFPGENLVERLERLATIAASARKRP | 3.95 | 2.9 | 11.7 | 7.06 | 6.36 | 3.76 | 6.26 | 9.63 | 13.1 | 10.7 | 8.03 | 2.76 | 5.2 | 3.26 | 4.18 |
| AS37_2513 (protein) MSSAPATKEEVDFALKVRRALDERAASLPDATTDRLAAARRAALARKKPDAAIVLVPALAGSAGTLELRPPGEPRKSLARRLARAWPLALLLAGLIGIAYWEDMQRTAELADIDAAMLSDNLPLTAYLDHGFNAYLSHTH | 2.67 | 2.48 | 11.4 | 5.87 | 4.08 | 3.3 | 4.01 | 9.25 | 13.8 | 7.32 | 7.22 | 2.67 | 3.08 | 5.31 | 3.44 |
| AS33_423 (protein) MMAMSNTMPDPREPGDVEALLPWYAAGTLNARDARRVADALDRDPALARQYAVILEEYASTIELNESLGAPSSRAMQKLFAAIDAEPARAPGAGQGLGARFAGFFAGLSPKALAWSASVAGLALLLQAGLIGALLTWPHAAPVQTAAYQPQREVARAPASSPAPATVSPPAAAMADRAADAGKSTPPMVMAERSGGPVVRSLAPQSGPRVLVKFAPEARASEIAALLDQYNAVVVDSSRGGLFRLQFGTQSLSKQDQETLIGRLQKEPVVSVVLSAP | 4.97 | 114 | 12.2 | 8.41 | 5.47 | 84.3 | 15 | 13.7 | 36 | 9.42 | 23.1 | 2.67 | 8.35 | 14.2 | 13.5 |
| AS38_1322 (protein) MSDGNDARPDARDGHDPGSDARDGHDPGSHARDGHDPGAGPFDGHGPGSDAGDGDDAGPDARDGHGAPAGPAGREQRKHPHDTHDMHDTHDTHAGKGTVNHGPAAQGPDAPGADGPATDEAALRAMMQRAVREMEPSDGTLEHLRRAVPARRARKRQALVGAAAAALFLGTAVPALVHVSNATGAGADPSVAGNASQAQGGASQGKDPAGGQSGVAGTGDTPEDRDKADPKETPGGKEPGAATGAPPSGVPSASSPADVPACAPGSLGPAVASSAEPDSTGVVYGSFRVTNVSSDGCTVTGPGTVVTASLGAAEATRIGTARHAAGDAAAGLPDPSLETASLALAPGAAYEVQFAWVPSETCPTTGGTTGGGSGGPSPDPSPTADTTAAGGTSAGGGEAGPTTQLITEDGPAEGSVSVTYTPEGGSGSATATVSNACAGTVYWTGLLADSGSGA | 3.62 | 3.13 | 8.3 | 4.75 | 4.35 | 3.68 | 5.72 | 10.4 | 8.93 | 5.74 | 6.3 | 2.92 | 4.78 | 3.28 | 4.75 |
| AS33_375 (protein) MMALSKKMLEQEPSEIELLLPWHAAGTLNARDARRVEDALARDPELAKQYAAIRGEYEETIHLNESLGAPSARAMQKLFGAIDAEPARETGSLPLSARIATFFASLSPRTLAWSASLGAVALVLQAGIIGAVLMKTQPTTFQTASLSTSAPITRELGAAVAPARALVRFTPEARVADITALLDSYQASIIGDAKGGMFRLQFDKAMSQDELASLLGRMQREKFVNLAVAAP | 4.71 | 152 | 17.8 | 11.3 | 5.75 | 113 | 21.3 | 17.1 | 44.6 | 14.1 | 31 | 3.33 | 9.28 | 20.7 | 16.3 |
